Experimental data as given in US20200317768A1 (published 2020).
Numbering of substitutions follows the chain as printed. Names and notes keep the numbering of the source.

T1: cynomolgus monkey FcγRIIb extracellular domain, C-terminal His-tag (cynomolgus monkey)
T1 construct: also called cyno FcγRIIb; cynoFcγRIIb; not shown: His-tag added to the C-terminus
T1 chain: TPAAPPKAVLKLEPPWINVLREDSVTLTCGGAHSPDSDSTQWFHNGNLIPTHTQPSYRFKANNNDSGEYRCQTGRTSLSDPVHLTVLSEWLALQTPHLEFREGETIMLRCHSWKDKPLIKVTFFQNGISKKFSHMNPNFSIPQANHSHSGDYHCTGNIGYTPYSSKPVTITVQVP

T2: cynomolgus monkey FcγRIIa3 extracellular domain, C-terminal His-tag (cynomolgus monkey)
T2 construct: also called cyno FcγRIIa3; FcgRIIa3; not shown: His-tag added to the C-terminus
T2 chain: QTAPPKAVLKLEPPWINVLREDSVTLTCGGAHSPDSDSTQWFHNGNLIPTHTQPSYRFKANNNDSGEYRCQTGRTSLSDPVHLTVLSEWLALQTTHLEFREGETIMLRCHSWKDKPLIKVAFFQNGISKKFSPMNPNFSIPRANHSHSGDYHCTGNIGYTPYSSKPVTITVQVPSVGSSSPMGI

T3: human FcγRIIaR extracellular domain, C-terminal His-tag (human, UniProt P12318 34-217)
T3 construct: also called human FcγRIIa (type R); FcgRIIaR; not shown: His-tag added to the C-terminus
T3 chain: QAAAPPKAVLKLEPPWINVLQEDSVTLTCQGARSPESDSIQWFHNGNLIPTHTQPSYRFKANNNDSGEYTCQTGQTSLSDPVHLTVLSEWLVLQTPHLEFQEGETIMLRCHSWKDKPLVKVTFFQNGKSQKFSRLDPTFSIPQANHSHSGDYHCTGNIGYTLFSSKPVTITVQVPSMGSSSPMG

T4: cynomolgus monkey FcγRIIa2 extracellular domain, C-terminal His-tag (cynomolgus monkey)
T4 construct: also called cyno FcγRIIa2; FcgRIIa2; not shown: His-tag added to the C-terminus
T4 chain: T2 chain with I127K, K130N, P133H, R142Q

T5: cynomolgus monkey FcγRIIa1 extracellular domain, C-terminal His-tag (cynomolgus monkey)
T5 construct: also called cyno FcγRIIa1; FcgRIIa1; not shown: His-tag added to the C-terminus
T5 chain: T2 chain with T95P, A121T, S128A, P133H, N135D

T6: human FcγRIIb extracellular domain, C-terminal His-tag (human, UniProt P31994 43-217)
T6 construct: also called FcgRIIb; not shown: His-tag added to the C-terminus
T6 sequence: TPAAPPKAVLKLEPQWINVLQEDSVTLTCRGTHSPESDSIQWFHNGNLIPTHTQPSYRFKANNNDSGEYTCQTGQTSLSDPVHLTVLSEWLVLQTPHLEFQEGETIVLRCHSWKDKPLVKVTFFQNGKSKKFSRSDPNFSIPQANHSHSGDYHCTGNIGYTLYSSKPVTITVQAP

B1: MS1032LO06-SG1 (M103205H795-SG1/M103202L889-SK1) (antibody, human IgG1, kappa)
heavy: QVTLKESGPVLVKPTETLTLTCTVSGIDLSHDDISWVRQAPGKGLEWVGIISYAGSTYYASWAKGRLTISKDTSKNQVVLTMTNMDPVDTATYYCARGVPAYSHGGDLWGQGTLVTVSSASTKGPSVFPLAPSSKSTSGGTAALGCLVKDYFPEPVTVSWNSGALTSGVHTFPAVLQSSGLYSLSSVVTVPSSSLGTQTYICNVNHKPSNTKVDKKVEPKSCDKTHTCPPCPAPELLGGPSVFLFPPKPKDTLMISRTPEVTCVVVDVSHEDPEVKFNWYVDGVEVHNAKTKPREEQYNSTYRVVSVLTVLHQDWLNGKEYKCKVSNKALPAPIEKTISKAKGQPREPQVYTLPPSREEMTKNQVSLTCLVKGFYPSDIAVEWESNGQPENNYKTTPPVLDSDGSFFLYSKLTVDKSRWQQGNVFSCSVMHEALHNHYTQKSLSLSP
light: DIVMTQSPATLSLSPGERATLSCTSSQSVYHANWLSWFQQKPGQPPKLLIYWASTLAYGVPSRFSGSGSGTDFTLTISSLQPEDAATYYCAGGYGGGRYAFGQGTKVEIKRTVAAPSVFIFPPSDEQLKSGTASVVCLLNNFYPREAKVQWKVDNALQSGNSQESVTEQDSKDSTYSLSSTLTLSKADYEKHKVYACEVTHQGLSSPVTKSFNRGEC
notes: Anti-latent myostatin antibody
B2: MS1032LO06-PK55 (M103205H795-PK55/M103202L889-SK1) (antibody, human IgG1, kappa)
heavy: QVTLKESGPVLVKPTETLTLTCTVSGIDLSHDDISWVRQAPGKGLEWVGIISYAGSTYYASWAKGRLTISKDTSKNQVVLTMTNMDPVDTATYYCARGVPAYSHGGDLWGQGTLVTVSSASTKGPSVFPLAPSSKSTSGGTAALGCLVKDYFPEPVTVSWNSGALTSGVHTFPAVLQSSGLYSLSSVVTVPSSSLGTQTYICNVNHKPSNTKVDKKVEPKSCDKTHTCPPCPAPELLNGPSVFLFPPKPKDTLMISRTPEVTCVVVDVSDEDPEVKFNWYVDGVEVHNAKTKPREEQYNSTYRVVSVLTVLHRDWLNGKEYKCKVSNKALPKPIEKTISKAKGQRREPQVYTLPPSREEMTKNQVSLTCLVKGFYPSDIAVEWESNGQPENNYKTTPPVLDSDGSFFLYSKLTVDKSRWQQGNVFSCSVMHEALHNHYTQKSLSLSP
light: B1 light
notes: CH PK55 = SG1 with G236N/H268D/Q311R/A330K/P343R (EU numbering); also called MS103205H795-PK55
B3: MS1032LO06-PK57 (M103205H795-PK57/M103202L889-SK1) (antibody, human IgG1, kappa)
heavy: B2 heavy with R345P, N386R, D415R
light: B1 light
notes: CH PK57 = SG1 with G236N/H268D/Q311R/A330K/N384R/D413R (EU numbering); also called MS103205H795-PK57
B4: MS1032LO06-MY352 (M103205H795-MY352/M103202L889-SK1) (antibody, human IgG1, kappa, name in EU numbering)
heavy: B2 heavy with R345P, D415R
light: B1 light
notes: Printed substitutions: G236N/H268D/Q311R/A330K/D413R (EU numbering); also called MS103205H795-MY352
B5: MS1032LO06-MY351 (M103205H795-MY351/M103202L889-SK1) (antibody, human IgG1, kappa)
heavy: B2 heavy with R345P, D415K
light: B1 light
notes: CH MY351 = SG1 with G236N/H268D/Q311R/A330K/D413K (EU numbering); also called MS103205H795-MY351
B6: MS1032LO06-MY201 (M103205H795-MY201/M103202L889-SK1) (antibody, human IgG1, kappa)
heavy: B2 heavy with R313Q, R345P
light: B1 light
notes: CH MY201 = SG1 with G236N/H268D/A330K (EU numbering); also called MS103205H795-MY201
B7: MS1032LO06-PK56 (M103205H795-PK56/M103202L889-SK1) (antibody, human IgG1, kappa)
heavy: B2 heavy with D415R
light: B1 light
notes: CH PK56 = SG1 with G236N/H268D/Q311R/A330K/P343R/D413R (EU numbering); also called MS103205H795-PK56

What follows are binders tested against T7, cynomolgus monkey FcγRIIIaS extracellular domain, C-terminal His-tag (cynomolgus monkey, UniProt A3RFZ7 21-206 (rhesus entry)) (assay: SPR; KD of SG1 divided by KD of variant;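 also: relative to parent M103205H795-SG1 carrying the SG1 human heavy chain constant region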).
T7 construct: also called cyno FcγRIIIaS; FcgRIIIaS; not shown: His-tag added to the C-terminus
T7 sequence (A3RFZ7 21-206): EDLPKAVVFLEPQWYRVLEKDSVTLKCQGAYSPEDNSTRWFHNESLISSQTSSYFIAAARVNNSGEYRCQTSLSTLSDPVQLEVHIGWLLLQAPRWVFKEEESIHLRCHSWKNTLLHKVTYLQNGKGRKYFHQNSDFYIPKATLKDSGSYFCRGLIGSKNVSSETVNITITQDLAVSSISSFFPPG
Procedure: (§1) The kinetic analysis of interactions between these antibodies and FcγR was carried out using BIACORE® T200 or BIACORE® 4000 (GE Healthcare). HBS-EP+ (GE Healthcare) was used as the running buffer, and the measurement temperature was set to 25° C. A chip produced by immobilizing Protein A. Protein A/G or mouse anti-human IgG kappa light chain (BD Biosciences) onto a Series S Sensor Chip CM4 or CM5 (GE Healthcare) by the amine-coupling method was used. […] After the measurement, the antibody captured on the chip was washed off by allowing reaction with 10 mM glycine-HCl, pH1.5 and 25 mM NaOH so that the chip was regenerated and used repeatedly. The sensorgrams obtained as measurement results were analyzed by the 1:1 Langmuir binding model using the BIACORE® Evaluation Software to calculate the binding rate constant ka (L/mol/s) and dissociation rate constant kd (l/s), and the dissociation constant KD (mol/L) was calculated from these values. […] Regarding such interactions, KD values were calculated using the following 1:1 binding model described in BIACORE® T100 Software Handbook BR1006-48 Edition AE.

KD fold (SG1 = 1) [fold] | Binder
1 | B1
0.08 | B2
0.06 | B3
0.07 | B4
0.07 | B5
0.08 | B6
0.06 | B7

Target: T1, cynomolgus monkey FcγRIIb extracellular …
Assay: SPR; KD of SG1 divided by KD of variant;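 also: relative to parent M103205H795-SG1 carrying the SG1 human heavy chain constant region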
Procedure: as §1

KD fold (SG1 = 1) [fold] | Binder
1 | B1
5.4 | B2
3.8 | B3
4.7 | B4
5 | B5
5.8 | B6
3.9 | B7

Target: T2, cynomolgus monkey FcγRIIa3 …
Assay: SPR; KD of SG1 divided by KD of variant;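 also: relative to parent M103205H795-SG1 carrying the SG1 human heavy chain constant region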
Procedure: as §1

KD fold (SG1 = 1) [fold] | Binder
1 | B1
4.3 | B2
2.7 | B3
3.9 | B4
4 | B5
4.9 | B6
3.5 | B7

Target: T3, human FcγRIIaR extracellular domain, …
Assay: SPR; KD of SG1 divided by KD of variant;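 also: relative to parent M103205H795-SG1 carrying the SG1 human heavy chain constant region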
Procedure: as §1

KD fold (SG1 = 1) [fold] | Binder
1 | B1
0.7 | B2
0.5 | B3
0.6 | B4
0.6 | B5
0.8 | B6
0.5 | B7

Target: T4, cynomolgus monkey FcγRIIa2 …
Assay: SPR; KD of SG1 divided by KD of variant
Procedure: as §1

KD fold (SG1 = 1) [fold] | Binder
1 | B1
4.1 | B2
2.8 | B3
3.5 | B4
3.6 | B5
4 | B6
3.1 | B7

These binders were tested against T8, human FcγRIIIaV extracellular domain, C-terminal His-tag (human, UniProt P08637 17-208) (assay: SPR; KD of SG1 divided by KD of variant).
T8 construct: also called FcgRIIIaV; not shown: His-tag added to the C-terminus
T8 sequence (P08637 17-208 F176V): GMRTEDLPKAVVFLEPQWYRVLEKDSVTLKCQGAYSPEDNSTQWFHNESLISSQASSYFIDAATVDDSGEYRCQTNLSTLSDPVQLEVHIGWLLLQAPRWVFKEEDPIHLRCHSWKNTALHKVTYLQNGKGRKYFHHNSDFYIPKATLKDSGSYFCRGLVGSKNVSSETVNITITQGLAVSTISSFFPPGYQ
Procedure: as §1

KD fold (SG1 = 1) [fold] | Binder
1 | B1
0.05 | B2
0.03 | B3
0.06 | B4
0.08 | B5
0.02 | B6
0.06 | B7

Target: T5, cynomolgus monkey FcγRIIa1 …
Assay: SPR; KD of SG1 divided by KD of variant
Procedure: as §1

KD fold (SG1 = 1) [fold] | Binder
1 | B1
3.3 | B2
2.5 | B3
2.7 | B4
3 | B5
3.2 | B6
2.6 | B7

These binders were tested against T6, human FcγRIIb extracellular domain, … (assay: SPR; KD of SG1 divided by KD of variant).
Procedure: as §1

KD fold (SG1 = 1) [fold] | Binder
1 | B1
6.3 | B2
4.1 | B3
4.6 | B4
4.9 | B5
5.6 | B6
4.7 | B7
